Experimental data as given in patent publication US20190016764A1 (KYUNGPOOK NATIONAL UNIVERSITY INDUSTRY ACADEMIC COOPERATION …, published 2019).
No end group written: not given here.

B5: soluble EPCR (endothelial protein C receptor) (receptor, UniProt Q9UNN8 18-210, looked up)
chain: SQDASDGLQRLHMLQISYFRDPYHVWYQGNASLGGHLTHVLEGPDTNTTIIQLQPLQEPESWARTQSGLQSYLLQFHGLVRLVHQERTLAFPLTIRCFLGCELPPEGSRAHVFFEVAVNGSSFVSFRPERALWQADTQVTSGVVTFTLQQLNAYNRTRYELREFLEDTCVQYVQKHISAENTKGSQTSRSYTS
notes: also called sEPCR

Columns and labels:
[1] = target: T1, EPCR in mouse vena cava (mouse, UniProt Q64695 18-242); test: immunohistochemistry of mouse vena cava after i.v. injection of the fluorescence-labelled molecule; comparison with TFG and TFMG
T1 construct: whole, on cells; Endogenous receptor in tissue sections of C57BL/6 mice; also called EPCR (mouse, in vivo)
T1 sequence (looked up): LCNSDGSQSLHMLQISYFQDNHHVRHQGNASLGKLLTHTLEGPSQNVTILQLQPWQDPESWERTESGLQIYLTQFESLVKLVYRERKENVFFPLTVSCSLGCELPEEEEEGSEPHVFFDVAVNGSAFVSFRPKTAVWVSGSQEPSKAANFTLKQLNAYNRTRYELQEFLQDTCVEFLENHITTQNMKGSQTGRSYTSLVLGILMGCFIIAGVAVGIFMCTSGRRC
Method: Twenty-four hours prior to CLP surgery, fluorescence labeled-PC-Gla, TFG, and TFMG (200 nM/mouse) was intravenously injected into the mice, respectively. After 24 h, mouse vena cava was enucleated and fixed in visikol for 24 h. Subsequently, vena cava was embedded in optimum cutting temperature (OCT) compound (Tissue Tek) at −80° C. Consecutive sections were incubated with anti-EPCR antibody (Santa Cruz, Calif.), anti-rabbit Alexa 488 (green), anti-CD31 antibody, and anti-rabbit Alexa 350 (blue), and observed by confocal microscopy at 63× magnification (TCS-SP5, Leica microsystem, Germany).

[2] = target: T2, TFMG (TRAP-ferritin monomer fragment-linker-PC-Gla fusion polypeptide)
T2 chain: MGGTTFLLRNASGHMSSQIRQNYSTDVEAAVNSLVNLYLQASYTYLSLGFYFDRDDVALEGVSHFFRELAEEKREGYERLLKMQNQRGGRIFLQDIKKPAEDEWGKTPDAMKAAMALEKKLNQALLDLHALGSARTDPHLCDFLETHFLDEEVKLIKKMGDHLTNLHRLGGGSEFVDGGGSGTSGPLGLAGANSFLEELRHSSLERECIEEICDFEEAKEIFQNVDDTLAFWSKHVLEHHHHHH

[3] = target: B5; test: solid-phase ELISA, sEPCR coated on the plate, detection with anti-protein C polyclonal antibody; Kd(app)
Method: (§1) To evaluate the interaction of the wild-type PC, PC-Gla peptides, TFG, and TFMG with EPCR, 96-well flat microtiter plates were coated with soluble EPCR in 20 mM carbonate-bicarbonate buffer (pH 9.6) containing 0.02% sodium azaide, overnight at 4° C. After the plates were washed three times in TBS buffer (0.1 M NaCl, 0.02 M Tris-HCl, pH 7.4) containing 0.05% Tween 20, the plates were incubated with wild-type PC, PC-Gla peptides, TFG, and TFMG ([…]) diluted in the buffer for 1 h. After the plates were rinsed again, they were incubated with a goat anti-protein C polyclonal antibody (1:1000) for 1 h. Then, the plates were washed and incubated with rabbit anti-goat IgG (KPL, MD, 1:1000) for 1 h. After washing, the plates were incubated with 2,2′-azino-di(3-ethylbenzthiazoline-6-sulfonate) (ABTS; KPL, Gaithersburg, Md.). Colorimetric analysis was performed by measuring absorbance values at 405 nm.
(§2) First, a solid-phase ELISA was used to measure the binding affinity of TFG or TFMG toward the PC-Gla receptor, EPCR. In this assay, the efficiency of their binding to soluble EPCR (sEPCR) was compared. […] TFG and TFMG, respectively.

[4] = target: T3, wild type Protein C (PC) (UniProt P04070 43-461); test: as above
T3 construct: also called wild-type PC
Method: as §1, §2

B1: PC-Gla peptide (Protein C Gla domain polypeptide) (peptide)
peptide: ANSFLEELRHSSLERECIEEICDFEEAKEIFQNVDDTLAFWSKHV
modifications: ends and bridges not checked; also: labelled with a fluorescent dye for cell and in vivo assays
notes: No gamma-carboxylation of Glu residues is stated; It was labelled with a fluorescent dye for the cell and in vivo assays; also called PC-Gla domain; PC-Gla peptides
Q: Does B1 bind [1]?
A: binds

B2: MMP-2 (matrix metalloproteinase-2), p-aminophenylmercuric acetate-activated (protein)
chain: YNFFPRKPKWDKNQITYRIIGYTPDLDPETVDDAFARAFQVWSDVTPLRFSRIHDGEADIMINFGRWEHGDGYPFDGKDGLLAHAFAPGTGVGGDSHFDDDELWTLGEGQVVRVKYGNADGEYCKFPFLFNGKEYNSCTDTGRSDGFLWCSTTYNFEKDGKYGFCPHEALFTMGGNAEGQPCKFPFRFQGTSYDSCTTEGRTDGYRWCGTTEDYDRDKKYGFCPETAMSTVGGNSEGAPCVFPFTFLGNKYESCTSAGRSDGKMWCATTANYDDDRKWGFCPDQGYSLFLVAAHEFGHAMGLEHSQDPGALMAPIYTYTKNFRLSQDDIKGIQELYGASPDIDLGTGPTPTLGPVTPEICKQDIVFDGIAQIRGEIFFFKDRFIWRTVTPRDKPMGPLLVATFWPELPEKIDAVYEAPQEEKAVFFAGNEYWIYSASTLERGYPKPLTSLGLPPDVQRVDAAFNWSKNKKTYIFAGDKFWRYNEVKKKMDPGFPKLIADAWNAIPDNLDAVVDLQGGGHSYFFKGAYYLKLENQSLKSVKFGSIKSDWLGC
Q: How did the “cleavage of the linker and release of PC-Gla (HPLC, MALDI-ToF)” value [2] turn out when B2 was run?
A: TFMG was cleaved by MMP-2 to release PC-Gla in agreement with the calculated mass (5,518.6 Da by MALDI-ToF)

B3: TFMG (TRAP-ferritin monomer fragment-linker-PC-Gla fusion polypeptide) (other)
chain: MGGTTFLLRNASGHMSSQIRQNYSTDVEAAVNSLVNLYLQASYTYLSLGFYFDRDDVALEGVSHFFRELAEEKREGYERLLKMQNQRGGRIFLQDIKKPAEDEWGKTPDAMKAAMALEKKLNQALLDLHALGSARTDPHLCDFLETHFLDEEVKLIKKMGDHLTNLHRLGGGSEFVDGGGSGTSGPLGLAGANSFLEELRHSSLERECIEEICDFEEAKEIFQNVDDTLAFWSKHVLEHHHHHH
notes: also called TMFG; TFME
Q: Which Kd [3] does the source give for B3 here?
A: 30.7 nM

B4: TFG (TRAP-ferritin monomer fragment-PC-Gla fusion polypeptide) (other)
chain: MGGTTFLLRNASGHMSSQIRQNYSTDVEAAVNSLVNLYLQASYTYLSLGFYFDRDDVALEGVSHFFRELAEEKREGYERLLKMQNQRGGRIFLQDIKKPAEDEWGKTPDAMKAAMALEKKLNQALLDLHALGSARTDPHLCDFLETHFLDEEVKLIKKMGDHLTNLHRLGGGSEFVDGGGSGTSANSFLEELRHSSLERECIEEICDFEEAKEIFQNVDDTLAFWSKHVLEHHHHHH
notes: also called TRAP-ferritin-PC-Gla; TFG nanocage
Q: B4 was tested. Which Kd [3] did it give?
A: 31.5 nM

Q: B5 was tested. Which Kd [4] did it give?
A: ~31.3 nM
